In patent US20210238296A1 (Genmab, published 2021):
Residue numbers refer to the chain shown, from its start. Names may count otherwise. Blank lines part the entries; values can stand above or below the binder they belong to.

Columns and labels:
[1] = target: FCGR1AECDHis (monomeric extracellular domain of FcγRIA) (Homo sapiens (Human), UniProt P12314 16-292); assay: ELISA, coated FCGR1AECD-His, 20 ug/mL antibody
[2] = target: T1, diFCGR2AR-HisBAP (dimeric extracellular domain of FcγRIIA allotype 131R) (Homo sapiens (Human), UniProt P12318 36-215, C-terminally biotinylated); assay: ELISA, captured antibody, dimeric biotinylated FcγR ECD
T1 construct: dimeric, His-tagged, C-terminally biotinylated ECD; also called IIA-131R
T1 chain: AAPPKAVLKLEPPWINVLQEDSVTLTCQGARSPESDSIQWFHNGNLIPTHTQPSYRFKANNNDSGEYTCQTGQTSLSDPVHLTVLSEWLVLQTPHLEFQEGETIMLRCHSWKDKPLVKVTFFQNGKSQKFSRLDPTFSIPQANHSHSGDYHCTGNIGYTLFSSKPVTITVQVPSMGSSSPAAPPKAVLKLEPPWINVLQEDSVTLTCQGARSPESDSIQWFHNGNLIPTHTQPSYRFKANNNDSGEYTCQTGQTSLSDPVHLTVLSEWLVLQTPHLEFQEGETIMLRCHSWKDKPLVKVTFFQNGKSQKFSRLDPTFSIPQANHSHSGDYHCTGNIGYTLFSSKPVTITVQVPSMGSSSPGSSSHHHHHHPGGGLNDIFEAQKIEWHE

[3] = target: T2, diFCGR2B-HisBAP (dimeric extracellular domain of FcγRIIB) (Homo sapiens (Human), UniProt P31994 44-223, C-terminally biotinylated); assay: as above
T2 construct: dimeric, His-tagged, C-terminally biotinylated ECD
T2 sequence: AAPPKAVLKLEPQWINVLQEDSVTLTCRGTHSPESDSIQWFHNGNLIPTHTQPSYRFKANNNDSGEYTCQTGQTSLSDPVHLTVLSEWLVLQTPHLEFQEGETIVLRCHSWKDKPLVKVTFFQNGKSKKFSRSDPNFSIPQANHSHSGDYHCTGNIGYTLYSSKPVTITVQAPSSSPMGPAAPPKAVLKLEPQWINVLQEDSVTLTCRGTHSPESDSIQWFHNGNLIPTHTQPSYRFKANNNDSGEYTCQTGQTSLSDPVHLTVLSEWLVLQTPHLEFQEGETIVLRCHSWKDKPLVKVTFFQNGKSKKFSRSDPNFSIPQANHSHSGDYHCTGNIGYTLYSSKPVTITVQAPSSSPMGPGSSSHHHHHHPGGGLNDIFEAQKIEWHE

[4] = target: T3, diFCGR2AH-HisBAP (dimeric extracellular domain of FcγRIIA allotype 131H) (Homo sapiens (Human), UniProt P12318 34-215, C-terminally biotinylated); assay: as above
T3 construct: dimeric, His-tagged, C-terminally biotinylated ECD; also called IIA-131H
T3 sequence: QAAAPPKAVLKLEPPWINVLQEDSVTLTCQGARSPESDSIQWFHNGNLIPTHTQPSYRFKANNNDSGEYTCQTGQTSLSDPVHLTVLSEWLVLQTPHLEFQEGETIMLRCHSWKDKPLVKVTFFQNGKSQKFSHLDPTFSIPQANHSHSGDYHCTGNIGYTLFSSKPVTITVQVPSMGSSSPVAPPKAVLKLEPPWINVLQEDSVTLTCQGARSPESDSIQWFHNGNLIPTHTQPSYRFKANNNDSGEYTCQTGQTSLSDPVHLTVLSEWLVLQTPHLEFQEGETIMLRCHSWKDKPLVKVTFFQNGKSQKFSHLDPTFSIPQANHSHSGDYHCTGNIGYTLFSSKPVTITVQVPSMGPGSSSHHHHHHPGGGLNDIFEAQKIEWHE

[5] = target: T4, diFCGR3AV-HisBAP (dimeric extracellular domain of FcγRIIIA allotype 158V) (C-terminally biotinylated); assay: as above
T4 construct: dimeric, His-tagged, C-terminally biotinylated ECD; also called IIIA-158V

[6] = target: T5, diFCGR3AF-HisBAP (dimeric extracellular domain of FcγRIIIA allotype 158F) (C-terminally biotinylated); assay: as above
T5 construct: dimeric, His-tagged, C-terminally biotinylated ECD; also called IIIA-158F

[7] = target: T1, diFCGR2AR-HisBAP (dimeric extracellular …); assay: FcγR ELISA, 20 ug/mL antibody
[8] = target: T2, diFCGR2B-HisBAP (dimeric extracellular …); assay: FcγR ELISA, 20 ug/mL antibody
[9] = target: T3, diFCGR2AH-HisBAP (dimeric extracellular …); assay: FcγR ELISA, 20 ug/mL antibody
[10] = target: T1, diFCGR2AR-HisBAP (dimeric extracellular …); assay: ELISA, captured antibody 20 ug/mL, dimeric biotinylated FcγR ECD
[11] = target: T2, diFCGR2B-HisBAP (dimeric extracellular …); assay: as above
[12] = target: T3, diFCGR2AH-HisBAP (dimeric extracellular …); assay: as above
[13] = target: T4, diFCGR3AV-HisBAP (dimeric extracellular …); assay: as above
[14] = target: T5, diFCGR3AF-HisBAP (dimeric extracellular …); assay: as above
C1q = target: T6, C1q (human, UniProt P02745 23-245; P02746 28-253; P02747 29-245); assay: flow cytometry of C1q on antibody-opsonized Wien 133 cells, 20% NHS on ice
T6 construct: native C1q in 20% normal human serum, detected with rabbit anti-human C1q-FITC on antibody-opsonized Wien 133 cells; also called human C1q from normal human serum
T6 sequence (P02745 23-245 limits assumed, chain 1 of 3): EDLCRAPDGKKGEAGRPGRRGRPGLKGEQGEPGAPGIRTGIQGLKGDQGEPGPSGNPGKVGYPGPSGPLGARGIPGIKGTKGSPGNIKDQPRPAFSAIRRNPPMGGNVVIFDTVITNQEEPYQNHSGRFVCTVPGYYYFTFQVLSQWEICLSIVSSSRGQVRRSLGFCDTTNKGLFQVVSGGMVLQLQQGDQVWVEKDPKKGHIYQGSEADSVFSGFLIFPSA
T6 sequence (P02746 28-253 limits assumed, chain 2 of 3): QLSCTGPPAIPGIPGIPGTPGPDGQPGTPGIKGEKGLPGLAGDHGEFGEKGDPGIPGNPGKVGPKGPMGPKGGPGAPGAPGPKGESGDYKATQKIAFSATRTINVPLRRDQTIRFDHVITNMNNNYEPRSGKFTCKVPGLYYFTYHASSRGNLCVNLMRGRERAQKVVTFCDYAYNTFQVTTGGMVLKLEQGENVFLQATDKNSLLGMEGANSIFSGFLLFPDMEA
T6 sequence (P02747 29-245 limits assumed, chain 3 of 3): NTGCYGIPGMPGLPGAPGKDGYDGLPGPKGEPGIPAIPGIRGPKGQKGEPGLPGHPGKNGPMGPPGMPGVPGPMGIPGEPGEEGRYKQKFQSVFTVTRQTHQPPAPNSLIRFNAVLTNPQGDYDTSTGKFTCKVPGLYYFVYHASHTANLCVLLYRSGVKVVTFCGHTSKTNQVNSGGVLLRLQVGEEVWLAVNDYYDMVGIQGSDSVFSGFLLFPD

Chain of FCGR1AECDHis (monomeric extracellular domain of FcγRIA) (P12314 other isoform, or with tags, fused parts or gaps limits assumed): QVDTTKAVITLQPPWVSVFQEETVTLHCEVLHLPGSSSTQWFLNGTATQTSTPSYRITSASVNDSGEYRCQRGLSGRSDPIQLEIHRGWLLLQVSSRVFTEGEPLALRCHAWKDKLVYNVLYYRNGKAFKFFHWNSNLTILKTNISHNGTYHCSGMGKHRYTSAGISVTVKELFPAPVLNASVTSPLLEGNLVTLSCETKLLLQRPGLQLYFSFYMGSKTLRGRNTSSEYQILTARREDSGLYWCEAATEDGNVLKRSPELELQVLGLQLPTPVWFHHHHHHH

B1: IgG1-CAMPATH-1H-E430G-K439E-G236R (antibody)
heavy: QVQLQESGPGLVRPSQTLSLTCTVSGFTFTDFYMNWVRQPPGRGLEWIGFIRDKAKGYTTEYNPSVKGRVTMLVDTSKNQFSLRLSSVTAADTAVYYCAREGHTAAPFDYWGQGSLVTVSSASTKGPSVFPLAPSSKSTSGGTAALGCLVKDYFPEPVTVSWNSGALTSGVHTFPAVLQSSGLYSLSSVVTVPSSSLGTQTYICNVNHKPSNTKVDKRVEPKSCDKTHTCPPCPAPELLRGPSVFLFPPKPKDTLMISRTPEVTCVVVDVSHEDPEVKFNWYVDGVEVHNAKTKPREEQYNSTYRVVSVLTVLHQDWLNGKEYKCKVSNKALPAPIEKTISKAKGQPREPQVYTLPPSREEMTKNQVSLTCLVKGFYPSDIAVEWESNGQPENNYKTTPPVLDSDGSFFLYSKLTVDKSRWQQGNVFSCSVMHGALHNHYTQESLSLSPGK
light: not shown
notes: also called IgG1-CAMPATH-1H-G236R-E430G-K439E; IgG1-CAMPATH-E430G-K439E-G236R
binding result [1]: binds
binding result [2]: no binding (tested: 20 µg/mL)
binding result [3]: no binding (tested: 20 µg/mL)
binding result [4]: no binding (tested: 20 µg/mL)
binding result [5]: no binding (tested: 20 µg/mL)
binding result [6]: no binding (tested: 20 µg/mL)

B2: IgG1-CAMPATH-1H-E430G-K439E-G237T (antibody)
heavy: B1 heavy with R240G, G241T
light: not shown
notes: also called IgG1-CD52-Campath-G237T-E430G-K439E
binding result [1]: binds
binding result [2]: no binding (tested: 20 µg/mL)
binding result [3]: no binding (tested: 20 µg/mL)
binding result [4]: no binding (tested: 20 µg/mL)
binding result [5]: no binding (tested: 20 µg/mL)
binding result [6]: no binding (tested: 20 µg/mL)

B3: IgG1-CAMPATH-1H-E430G-K439E-G237R (antibody)
heavy: B1 heavy with R240G, G241R
light: not shown
notes: also called IgG1-CD52-Campath-G237R-E430G-K439E
binding result [1]: binds

B6: IgG1-11B8-E430G-S440K-E333S (antibody)
heavy: EVQLVQSGGGLVHPGGSLRLSCTGSGFTFSYHAMHWVRQAPGKGLEWVSIIGTGGVTYYADSVKGRFTISRDNVKNSLYLQMNSLRAEDMAVYYCARDYYGAGSFYDGLYGMDVWGQGTTVTVSSASTKGPSVFPLAPSSKSTSGGTAALGCLVKDYFPEPVTVSWNSGALTSGVHTFPAVLQSSGLYSLSSVVTVPSSSLGTQTYICNVNHKPSNTKVDKRVEPKSCDKTHTCPPCPAPELLGGPSVFLFPPKPKDTLMISRTPEVTCVVVDVSHEDPEVKFNWYVDGVEVHNAKTKPREEQYNSTYRVVSVLTVLHQDWLNGKEYKCKVSNKALPAPISKTISKAKGQPREPQVYTLPPSREEMTKNQVSLTCLVKGFYPSDIAVEWESNGQPENNYKTTPPVLDSDGSFFLYSKLTVDKSRWQQGNVFSCSVMHGALHNHYTQKKLSLSPGK
light: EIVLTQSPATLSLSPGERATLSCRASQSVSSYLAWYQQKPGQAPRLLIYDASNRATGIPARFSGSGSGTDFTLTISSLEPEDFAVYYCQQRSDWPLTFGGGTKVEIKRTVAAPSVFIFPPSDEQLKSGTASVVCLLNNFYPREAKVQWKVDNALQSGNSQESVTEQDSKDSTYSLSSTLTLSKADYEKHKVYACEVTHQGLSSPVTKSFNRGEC
notes: also called IgG1-11B8-E333S-E430G-S440K
reduction of FcγR binding against IgG1-11B8-E430G-S440K [10]: ~50%
reduction of FcγR binding against IgG1-11B8-E430G-S440K [11]: ~50%
reduction of FcγR binding against IgG1-11B8-E430G-S440K [12]: ~50%
reduction of FcγR binding against IgG1-11B8-E430G-S440K [13]: ~20%
reduction of FcγR binding against IgG1-11B8-E430G-S440K [14]: ~20%
binding result (C1q): binds

Continued, values first:

binding result [1]: binds
B4: IgG1-CAMPATH-1H-E430G-K439E-G237Q (antibody)
heavy: B1 heavy with R240G, G241Q
light: not shown
notes: also called IgG1-CD52-Campath-G237Q-E430G-K439E

binding result [7]: binds
binding result [8]: binds
binding result [9]: binds
binding result [1]: binds
B5: IgG1-CAMPATH-1H-E430G-K439E-K322A (antibody)
heavy: B1 heavy with R240G, K326A
light: not shown
notes: also called IgG1-CAMPATH-1H-K322A-E430G-K439E

binding result [10]: binds
binding result [11]: binds
binding result [12]: binds
binding result (C1q): binds
B7: IgG1-11B8-E430G-S440K-K326A (antibody)
heavy: B6 heavy with K334A, S341E
light: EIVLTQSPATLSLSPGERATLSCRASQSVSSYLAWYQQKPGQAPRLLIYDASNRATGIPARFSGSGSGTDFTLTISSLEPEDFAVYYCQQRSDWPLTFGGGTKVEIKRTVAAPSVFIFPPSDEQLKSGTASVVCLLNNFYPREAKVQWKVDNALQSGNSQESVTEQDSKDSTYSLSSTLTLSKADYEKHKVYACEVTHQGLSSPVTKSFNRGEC
notes: also called IgG1-11B8-K326A-E430G-S440K
